Data published in the domain aggregation screens of Martell et al. (2025).

Test: soluble fraction after stress (log2 fold change); higher = more stays soluble; pooled small domains, quantitative proteomics
Details: stress: pH 4
Summary of the method: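 With high-throughput quantitative proteomics, pooled custom libraries of small protein domains were measured after pH 4 stress. Each domain's soluble amount after the stress gives a fold change taken as aggregation propensity. Higher log2 values mean more of the domain stayed soluble.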

Sequence | soluble fraction (log2)
HMTVVHRQVHLQPDQGAFRAALYSHKAVLSEQTDDQGAINLEIRLPESDFLRLLNSSGLKLQDLVP | -0.512
HMTVVSVDDQASASSEAIRTKVAGDSAARMSVDAGGKITWGAGSASGDVTLYRSAANTLKTDDTLVAT | 0.109
HMTYADTRDLLIRRGMELLTEQGIAATSIERVLQSTGIPKGSFYHYFATKHDFTLAVMDAYHHY | -0.324
HMTYAQQIGARIAFLRRLKGLTLAELAERVNKHKSTISKYESGQIIIDIESLKEVADALGVDVAQIVE | 0.187
HMTYFDIAPELLTVYKEINDIPRDINQIVRKTGLSINEVSYKTMILQLEDKIVELPGQRFIRNS | -0.815
HMTYKHLTIDEMKRFLSTREDSQSALVQFARVENVVGNRKGKYAVIKKWFLKNYKEEYNAFLS | 0.0391
HMTYPGSIALVNPKHEAFVQHYVATSGSRGQAAKLAGVTTTTARNLLQDVEATARIRYLNAQQFQ | 0.22
HMTYTGTVTGVDEGGLRVRSSTSTENTSNVITKVYTGDTFDVLDTVYNGSAKWYKIGFTYNGTYTYGYVSA | -0.518
HMTYVSVSNYIGTNVDKAKGELESQGLVVLLEEQKTEDKSQDGMVLKQTIEGGTKVSSGSRITLIYGRYT | -0.117
HMVADEGELLAIAREVVAANPKVFEDWKAGKQSAAQWFVGQIMKRTRGRANPQLALKLVTQALEEHAR | -0.21
HMVAEKSKIEMAIDSINKLAKELADSGVAKKTISDIIKSVSGSANYNKITDFEVATDVYKELVALKNKEDT | -0.224
HMVAESGLPPAFRSTWRHIMQTRGAQLDVLAMRTGTDAASLQKQLHAMELGGWVRRMPGGWYVPLK | -0.1
HMVAFYATPKERGIYDDAETYREGDIVSIADGSRWIYVNPTATAGNDPADGSVYWERMSGAATGP | -0.127
HMVAGHLQEKKGYFYMVLTYRDHEGKRKSKWLPTGLTIKGNKKRAQDLLQDARKNFVPDIPT | ≥ 0.43
HMVAGHLQEKNGYFYIVLNYTNHEGKRKSKWITTGLTVKGNKKRAQDLLQEARKTFVPDIPT | 0.22
HMVAPKDIVMPSFVGKKYTDVVNTPNSSYTFEFKKDEKNSSDYAVGFIMDQKPKAGETVKSNATVTLIVSK | 0.0982
HMVAPNSEATTKLIIEKTKYANESPAILMGFKATATMLMAKHVVLPTSKYAYFNEGRALLEKAIK | 0.278
HMVAREAYTTQNLTDVFSISRQAVEKRAKREGWQSVPRKGRGGGKLWVVSSMPAETRDLLASLLLRK | ≥ 0.43
HMVDALYGQGARVMRDFSEGSGIVKLDNGETWTGRLSPAASGASLYVGDRVIVTRIDGAIAEVTPP | -0.446
HMVDDNFGLGEVTDQNYLTVLGRALDLIGWTDEQADSYSLKTFGVPHWDELGRSQAEKLVAHLIGLLKEQM | -0.157
HMVDIEQAEFLSRQFDLLLARLDDPTIEWQDIADIRSEYTGENEHRDTIRKGSKLFYEYLQAGWIKN | -0.809
HMVDISLSDRELEVLRLLAMGLSNADISRRLYLSEGTIRNYMSGIFSKLNVSDRTQAVVIALREGLVNL | -0.976
HMVDPAEASKRAREYLDALPADDLKDVIRQFSATLAEGSVVLGYFQRSGLKSKVVKTALEQFVASTILSK | -0.268

Sequence | soluble fraction (log2)
HMVDPAFLAWQQKPENTWFGTDRRKTALAIAIAEEIRNDPANSNLVGAAFYARVAEETEETLN | -1.23
HMVDPWLEQVHRASAAYATAHGSARIPTTHPDLGWKVVRVRQRHRKGLLSDEWVAKFEALPGWTWEPK | -0.471
HMVDQAFQTQLKNIQARTGKNLDELYAFIRASGLVKHGEIRDLAKRELSLGHGDANTLAKFYLESLAAAA | -0.103
HMVDQKLIQASAEHSGIRIDRFLSEQLPEHSRSYIQKLIKDGQVSIGGKAVKSNYKIAGTEEISLLIPDQ | -0.224
HMVDTSDLPAIVEKVFADNPEQVNDILNGKDRVKGFLVGQIMKATRGQAPPDEVNKLIDATLEKMKAA | 0.188
HMVDYIGRRGVMLSTVSEEKMGNAEVVIDGNSYNIYVKSLDGSTIAYHQEILIINKSKDNNYFLVQIY | -0.548
HMVEAIDQALIEKQIQAVLQENSAAVKKYQAGKTEVLAFLIGQSMRKIAKKVDANLVKNILLEQLKNK | 0.077
HMVEDFSEVLLQYIREQGGAIALNDKTDAGVIYDTFGVSKKTFKKAVGDLYKKRLIVLGDEGIRLA | -0.939
HMVEIGENIKKLRKAKRMTQKEVANQLNVTPQTISKWERNISYPDLDMLVKLSQLFHISTDALL | ≥ 0.43
HMVELNDNEKIVYDILKETEKIHIDELTAKVQLTQSILSGALVQMEMKGMIVSLPGKMYKLL | -1.53
HMVELRDGSLPLARGSVGDLVAEVQRKLGVAADGIFGPQTERAVRAFQARAGLASDGIVGPLTWSALFGA | 0.117
HMVELVKVPALQGETVDEAIADIKDAGLEPGQVRYVESDLPKDTVTYQSVDAGEQVKAGTVINLQASKGP | 0.137
HMVEMSNMELVREQYFQNLIYNVGDWVKDSKTEITGEVVKRGTNYLTIVQEDFTLHKVWLEDAESME | -1.46
HMVEPDELTEREREVLQFVARGLSNKEIGAALALSPHTIKAHLRSILDKLHLRSRAEAAAWAVRSGLS | -0.162
HMVEPLIVRNFSINYADIDKLETKIKDYISNSDKSGVNRGRVTSDTRTNMLIVTETASKLAQVEQLLKALD | -0.591
HMVEPTDFTYLKAEVETAKALKQADYTVATWKSFAGELAEAEEVIAKTDASQAEVNEALSHLQAAEKELV | 0.215
HMVETDQESSLIQAIYKYFEITGDNTFFDEKVGEKTVADRMEWAMDYLIQNRFSEEYGLIWGA | -0.517
HMVFADRLRALRKKSGLTQDEFSKQTGIGRSAVGMYESGKREPNYTTLSKVARFYHVSTDYLLGRTDTP | -0.13
HMVFQTAAEKAYEIISKKIMKGEYEPGMRLVRRQLAQELGVSPIPILEAMKRLEQDGLIEYKAHWGSIVTI | -0.56
HMVFRFELQPSSATPLYRQIVEQVTRAVAAGVLRDGEELPSVRAVAQEYVINPMTVSKAYSLLEAQSI | -0.34
HMVFSNLGSRGEEVRQIQTKLKELGYLQGNVDGIYGNQTKQAVTAFQRDHGLSADGIAGEKTLAALGIG | 0.105
HMVGAEDISKPMNLGALMRTAHAFGASFFFTINAHPKVRHAYNSDTSRSFDHMPYYPWDTMEE | -0.287
HMVGDLPPQELRVFELIGDGLSNREIADEMILAEKTIKNYVTSLLQKLGMQRRTEAAAFAARLDER | -0.607

Sequence | soluble fraction (log2)
HMVGDMLTQKDSEGLTAYLYQQGIISQREMLLLNGILKDRVLTGMEKGQRDSVRASMVQHLLAMLNMM | -1.55
HMVGEQISYIPLKFATASEVVKSLTSMFQQQKGIAPIRIVAEERTNAILLLASEADTARVKNLIAMMDKGV | -0.0978
HMVGGIAIGQFNVPRGSVKVTAGGRLLQEGLDYTVNYQAGRVQILDESLKNSNVPIEISTESNS | -0.111
HMVGMDRYFKIKNIKDSSAAFERDYILHFLKENDWMVSKTAQMIGLERTTLYKKIKQLGLASMLEN | -0.386
HMVGQIISNARKQEKMTQSELAEKVGTNKTYISRIEKGVIEPGVGLFFRIIDALGLKIEIVKP | -0.362
HMVHSEDLQDHKYVSQLGEVFLKENPNYENIKKSWGDHMVVIKKFGRYPHRNKILNRKSTPEELEFLKG | -0.115
HMVILPGEKMVVKIVQPGKEKGQGVGYLADGTMIVVDSGDKMIGQDVPTEITRVFQTVAGKMLFAVPVD | -0.255
HMVIMDLIVNGEPKYVVGEQLHLILDELGYSGKHFVVELNGEILSKEAYTTTKLTAADRLEIVSFVGG | -1.72
HMVITATYTDFMDALEADEVKQVQFSSTEINYTIEKGGHVQYFKTGVVDNPQLPQILREKGVTYAAEIP | -0.023
HMVITDPFFLEPENLVKDAVALMEKYRISGVPITKKGKLVGILTNRDLRFESNYEQPIANVMS | -0.363
HMVITISEADVSGTYTKSITQGDWKYIRTWTPFEDERLYDLAKDPMELRDLAPAAPSKLAELRELLSALVS | -1.56
HMVIVMRKDADAASIEKVVSEVKSRGFMPHVSEGESRTLIGAIGPAPTEELREHFAGLAGVETVVRITK | -0.0319
HMVKDIEFSLPLEQDYYKVLISVKDSQGKRQVYEELHRAGDTVYAAVRYYGSGELEIHLNGKFYKTIK | -1.6
HMVKDLEIETIRLNNLLASDAEEVLKSLGGAKPTYKAVAVPGSNSLVIEGTKADLIKLKSIINALEDGS | -0.316
HMVKETNYSFFLKQIDAGTVEQVQIEDTEIKFKVSTADGKEQVYSTVRVEDPDLVDRLYSKGNIDFTGN | -1.3
HMVKIIHYEVYANRGDGWKLVDQFSADQRQEAVNLAKEIETEDQVAVKIIREIFDVQDNTYQESVEYIG | -0.804
HMVKLDDLTGQDKATAEATITNSGLKYSEQQEFSDEVEAGKVIRTDPGAGTSSLKAGDTVTVYVSRGPEN | -0.0896
HMVKNYYEILEVDKKASPEVIEKAYKTLAKKYHPDLQEAENNGQYEEKMKEINEAYSVLSDEFKRRTYDEQ | 0.103
HMVKSYEVPDVSNLTVLEAEAKLQEMGFEIDEEQKEISSSDIESGRVVKTSPQAGSKRKEGAIITLYVSSG | -0.433
HMVKTANVAYSEFLKLVESDNISDVSIVGRTITGHLDDGTKFSTYTPPNDPSLIDKLTRKNVIIKSAPE | 0.181
HMVKVEVKPNVLQWVIKRMDNFDRLKDQFPNIDKWINQESQPTLKQLEKLAKMTAVPLGYFFLPNPPEEK | -0.507
HMVLELRIGQIVRGVLLQLVGEREGIVSVGGVPVRARLEAEIPLGRGVMLQVQPGSDANNILLKPV | -0.139
HMVLENLKKFIDSKGISVSAFEKSIGMSNNSFRKSLNSGGHIGSDKLENILKIYPELNPVWLLQGEGEML | -0.0839
